Results reported in paper doi:10.1101/2022.05.24.493321.
Like-named read-outs stand apart in the source and are kept apart here.

Experiments:
[1] = molecular target: T1, MAX (Homo sapiens, UniProt P61244 1-160); assay: MITOMI
[2] = molecular target: T2, Pho4 (S. cerevisiae, UniProt P07270 1-312); assay: MITOMI
T2 sequence: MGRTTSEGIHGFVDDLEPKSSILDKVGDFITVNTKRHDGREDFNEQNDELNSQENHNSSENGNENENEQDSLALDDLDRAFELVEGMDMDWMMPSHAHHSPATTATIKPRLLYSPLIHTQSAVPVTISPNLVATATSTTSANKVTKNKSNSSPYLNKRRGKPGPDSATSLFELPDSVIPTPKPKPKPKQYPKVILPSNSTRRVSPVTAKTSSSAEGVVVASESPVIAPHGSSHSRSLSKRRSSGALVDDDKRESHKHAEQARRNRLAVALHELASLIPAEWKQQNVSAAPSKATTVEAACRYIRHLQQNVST

[3] = molecular target: T2, Pho4; assay: STAMMP
[4] = molecular target: T1, MAX; assay: MITOMI; remark: listed apart in the source

T1 sequence (P61244 whole entry): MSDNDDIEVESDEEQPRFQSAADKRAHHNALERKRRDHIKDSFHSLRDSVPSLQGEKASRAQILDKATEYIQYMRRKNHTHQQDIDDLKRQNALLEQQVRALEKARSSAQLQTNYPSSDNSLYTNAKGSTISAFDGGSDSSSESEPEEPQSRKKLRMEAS

B1: ATGC/ATGC 60bp (dsDNA)
DNA 1: CGCATGCATGCATGCATGCATGCATGCATGCATGCATGCATGCATGCATGCATGCATGCATGCGTCACGTGACGCATGCATGCATGCATGCATGCATGCATGCATGCATGCATGCATGCATGCATGCATGCATCGTCCGGCGGTATGAC
DNA 2: GTCATACCGCCGGACGATGCATGCATGCATGCATGCATGCATGCATGCATGCATGCATGCATGCATGCATGCATGCGTCACGTGACGCATGCATGCATGCATGCATGCATGCATGCATGCATGCATGCATGCATGCATGCATGCATGCG
binding result [1]: binds | binding result [2]: binds

B2: Motif + random 1 (dsDNA)
DNA 1: CGCACAGTCACTTAACGTCACGTGACCGGGGTATTTCAGGTCCGGCGGTATGAC
DNA 2: GTCATACCGCCGGACCTGAAATACCCCGGTCACGTGACGTTAAGTGACTGTGCG
binding result [3]: binds

B3: GT/AC 15bp (dsDNA)
DNA 1: CGCCCCAGCACTGCCAAGCCGACGTTAAAACGGGTTGCTTCATCAATCTGTGTGTGTGTGTGTGTCACGTGACACACACACACACACATATCGGCACTTGCGCTTGAGTGCATCGAATAGTTCGGTTTATGAGCGTCCGGCGGTATGAC
DNA 2: GTCATACCGCCGGACGCTCATAAACCGAACTATTCGATGCACTCAAGCGCAAGTGCCGATATGTGTGTGTGTGTGTGTCACGTGACACACACACACACACAGATTGATGAAGCAACCCGTTTTAACGTCGGCTTGGCAGTGCTGGGGCG
binding result [4]: binds
